Experimental findings from the Human Domainome abundance scans (Beltran et al. 2025) are described below.

± gives the uncertainty stated by the source.

B1: Spectrin alpha chain, erythrocytic 1, residues 979 to 1036; numbered along this chain, P02549 (parent)
chain: EQRVMALYDFQARSPREVTMKKGDVLTLLSSINKDWWKVEAADHQGIVPAVYVRRLAH

The variants in the series derive from B1. Description: abundance fitness (aPCA) (normalised: wild type 0, dead -1); higher = more abundant; growth selection in yeast, the domain comes from the species named. The note with it: Homo sapiens.
In the case of EQRVMALYDFQARSPREVTMKKGDVLTLLSSINKDRWKVEAADHQGIVPAVYVRRLAH [W36R], the abundance fitness was -0.894 ± 0.36.

As to EQRVMALYDFQARSPREVTMKKGDVLTLLSSINKDKWKVEAADHQGIVPAVYVRRLAH [W36K], the abundance fitness was -0.675 ± 0.29.

For the variant EQRVMALYDFQARSPREVTMKKGDVLTLLSSINKDGWKVEAADHQGIVPAVYVRRLAH [W36G], the abundance fitness was -0.778 ± 0.2.

As for EQRVMALYDFQARSPREVTMKKGDVLTLLSSINKDDWKVEAADHQGIVPAVYVRRLAH [W36D], the abundance fitness was -0.582 ± 0.15.

On to EQRVMALYDFQARSPREVTMKKGDVLTLLSSINKDEWKVEAADHQGIVPAVYVRRLAH [W36E], for which the abundance fitness came out at 0.664 ± 0.2.

EQRVMALYDFQARSPREVTMKKGDVLTLLSSINKDVWKVEAADHQGIVPAVYVRRLAH [W36V]: the abundance fitness was -0.554 ± 0.42.

Regarding EQRVMALYDFQARSPREVTMKKGDVLTCLSSINKDWWKVEAADHQGIVPAVYVRRLAH [L28C], the abundance fitness turned out to be 0.354 ± 0.28.

With EQRVMALYDFQARSPREVTMKKGDVLTGLSSINKDWWKVEAADHQGIVPAVYVRRLAH [L28G], the abundance fitness was -0.756 ± 0.14.

With EQRVMALYDFQARSPREVTMKKGDVLTTLSSINKDWWKVEAADHQGIVPAVYVRRLAH [L28T], the abundance fitness is -0.47 ± 0.25.

Consider EQRVMALYDFQARSPREVTMKKGDVLTRLSSINKDWWKVEAADHQGIVPAVYVRRLAH [L28R], for which the abundance fitness is -0.938 ± 0.18.

Regarding EQRVMALYDFQARSPREVTMKKGDVLTKLSSINKDWWKVEAADHQGIVPAVYVRRLAH [L28K], the abundance fitness was -0.676 ± 0.44.

For EQRVMALYDFQARSPREVTMKKGDVLTSLSSINKDWWKVEAADHQGIVPAVYVRRLAH [L28S], the abundance fitness was -0.726 ± 0.39.

EQRVMALYDFQARSPREVTMKKGDVLTILSSINKDWWKVEAADHQGIVPAVYVRRLAH [L28I]: the abundance fitness was found to be 0.024 ± 0.44.

EQRVMALYDFQARSPREVTMKKGDVLTALSSINKDWWKVEAADHQGIVPAVYVRRLAH [L28A]: the abundance fitness was -0.762 ± 0.26.

As for EQRVMALYDFQARSPREVTMKKGDVLTWLSSINKDWWKVEAADHQGIVPAVYVRRLAH [L28W], the abundance fitness is -0.536 ± 0.47.

Take EQRVMALYDFQARSPREVTMKKGDVLTLLSSINMDWWKVEAADHQGIVPAVYVRRLAH [K34M]: the abundance fitness was -0.514 ± 0.11.

EQRVMALYDFQARSPREVTMKKGDVLTLLSSINGDWWKVEAADHQGIVPAVYVRRLAH [K34G]: the abundance fitness was -0.415 ± 0.081.

For the variant EQRVMALYDFQARSPREVTMKKGDVLTLLSSINPDWWKVEAADHQGIVPAVYVRRLAH [K34P], the abundance fitness is -0.015 ± 0.33.

For EQRVMALYDFQARSPREVTMKKGDVLTLLSSINVDWWKVEAADHQGIVPAVYVRRLAH [K34V], the abundance fitness is -0.741 ± 0.19.

For EQRVMALYDFQARSPREVTMKKGDVLTLLSSINADWWKVEAADHQGIVPAVYVRRLAH [K34A], the abundance fitness was -0.292 ± 0.086.

For the variant EQRVMALYDFQARSPREVTMKKGDVLTLLSSINTDWWKVEAADHQGIVPAVYVRRLAH [K34T], the abundance fitness was determined as 0.023 ± 0.26.

As for EQRVMALYDFQARSPREVTMKKGDVLTLLSSINHDWWKVEAADHQGIVPAVYVRRLAH [K34H], the abundance fitness stood at 0.231 ± 0.29.

In the case of EQRVMALYDFQARSPREVTMKKGDVLTLLSSINRDWWKVEAADHQGIVPAVYVRRLAH [K34R], the abundance fitness is -0.168 ± 0.097.

On to EQRVMALYDFQARSPREVTMKKGDVLTLLSSINLDWWKVEAADHQGIVPAVYVRRLAH [K34L], for which the abundance fitness stood at 0.207 ± 0.17.

For the variant EQRVMALYDFQARSPREVTMKKGDVLTLLSSINQDWWKVEAADHQGIVPAVYVRRLAH [K34Q], the abundance fitness is -0.229 ± 0.28.

Take EQRVMALYDFQARSPREVTMKKGDVLTLPSSINKDWWKVEAADHQGIVPAVYVRRLAH [L29P]: the abundance fitness turned out to be 0.075 ± 0.33.

On to EQRVMALYDFQARSPREVTMKKGDVLTLVSSINKDWWKVEAADHQGIVPAVYVRRLAH [L29V], for which the abundance fitness was 0.016 ± 0.081.

On to EQRVMALYDFQARSPREVTMKKGDVLTLISSINKDWWKVEAADHQGIVPAVYVRRLAH [L29I], for which the abundance fitness is -0.266 ± 0.4.

As to EQRVMALYDFQARSPREVTMKKGDVLTLRSSINKDWWKVEAADHQGIVPAVYVRRLAH [L29R], the abundance fitness was -0.768 ± 0.34.

In the case of EQRVMALYDFQARSPREVTMKKGDVLTLGSSINKDWWKVEAADHQGIVPAVYVRRLAH [L29G], the abundance fitness was -0.464 ± 0.23.

Consider EQRVMALYDFQARSPREVTMKKGDVLTLSSSINKDWWKVEAADHQGIVPAVYVRRLAH [L29S], for which the abundance fitness is -0.134 ± 0.2.

In the case of EQRVMALYDFQARSPREVTMKKGDVLTLWSSINKDWWKVEAADHQGIVPAVYVRRLAH [L29W], the abundance fitness is -0.111 ± 0.26.

With EQRVMALYDFQARSPREVTMKKGDVLTLMSSINKDWWKVEAADHQGIVPAVYVRRLAH [L29M], the abundance fitness was -0.582 ± 0.16.

Turning to EQRVMALYDFQARSPREVTMKKGDVLTLKSSINKDWWKVEAADHQGIVPAVYVRRLAH [L29K], the abundance fitness was found to be 0.119 ± 0.11.

On to EQRVMALYDFQARSPREVTMKKGDVLTLESSINKDWWKVEAADHQGIVPAVYVRRLAH [L29E], for which the abundance fitness is -0.934 ± 0.22.

Take EQRVMALYDFQARSPREVTMKKGDVLTLTSSINKDWWKVEAADHQGIVPAVYVRRLAH [L29T]: the abundance fitness was -0.27 ± 0.29.

Consider EQRVMALYDFQARSPREVTMKKGDVLTLLSSISKDWWKVEAADHQGIVPAVYVRRLAH [N33S], for which the abundance fitness was -0.35 ± 0.34.

Regarding EQRVMALYDFQARSPREVTMKKGDVLTLLSSIQKDWWKVEAADHQGIVPAVYVRRLAH [N33Q], the abundance fitness is -0.494 ± 0.28.

For EQRVMALYDFQARSPREVTMKKGDVLTLLSSIEKDWWKVEAADHQGIVPAVYVRRLAH [N33E], the abundance fitness was -0.064 ± 0.21.

As for EQRVMALYDFQARSPREVTMKKGDVLTLLSSIWKDWWKVEAADHQGIVPAVYVRRLAH [N33W], the abundance fitness was -0.822 ± 0.21.

Consider EQRVMALYDFQARSPREVTMKKGDVLTLLSSIDKDWWKVEAADHQGIVPAVYVRRLAH [N33D], for which the abundance fitness came to 0.224 ± 0.22.

Consider EQRVMALYDFQARSPREVTMKKGDVLTLLSSIRKDWWKVEAADHQGIVPAVYVRRLAH [N33R], for which the abundance fitness is -0.739 ± 0.12.

EQRVMALYDFQARSPREVTMKKGDVLTLLSSIGKDWWKVEAADHQGIVPAVYVRRLAH [N33G]: the abundance fitness was -0.447 ± 0.18.

In the case of EQRVMALYDFQARSPREVTMKKGDVLTLLSSICKDWWKVEAADHQGIVPAVYVRRLAH [N33C], the abundance fitness was -0.929 ± 0.38.

As to EQRVMALYDFQARSPREVTMKKGDVLTLLSSIVKDWWKVEAADHQGIVPAVYVRRLAH [N33V], the abundance fitness is -0.833 ± 0.3.
